Data on 8 molecules can be found in publication PMC10872586 (Cell reports, 2023).

In assay [1] the target is mini-HA #4900 protein (Designed influenza A H1 HA stem #4900 …, stabilised, biotin at the BirA biotinylation site, conjugated to streptavidin-PE (for the yeast display assays only)). The experiment in a line: BLI. As to conditions: both partners purified.
In assay [2] the target is HA protein from H1N1 A/Solomon Islands/3/2006 (Influenza A virus (A/Solomon …, UniProt A7Y8I1, strain)). The experiment in a line: BLI. As to conditions: both partners purified.

B1: CR9114 Fab (positive control) (Fab, V domains shown)
VH: QVQLVQSGAEVKKPGSSVKVSCKSSGGTSNNYAISWVRQAPGQGLDWMGGISPIFGSTAYAQKFQGRVTISADIFSNTAYMELNSLTSEDTAVYFCARHGNYYYYSGMDVWGQGTTVTVSS
VL: QSALTQPPAVSGTPGQRVTISCSGSDSNIGRRSVNWYQQFPGTAPKLLIYSNDQRPSVVPDRFSGSKSGTSASLAISGLQSEDEAEYYCAAWDDSLKGAVFGGGTQLTVL
notes: source: Expi293F, co-transfected, purified (CaptureSelect CH1-XL)
Take B1: binding in assay [1] was characterised by a dissociation constant (Kd) of 0.69 nM.

B2: CR9114 gHC Fab VL A96W (Fab, V domains shown)
VH: QVQLVQSGAEVKKPGSSVKVSCKASGGTFSSYAISWVRQAPGQGLEWMGGIIPIFGTANYAQKFQGRVTITADKSTSTAYMELSSLRSEDTAVYYCARHGNYYYYYGMDVWGQGTTVTVSS
VL: SYVLTQPPAVSGTPGQRVTISCSGSDSNIGRRSVNWYQQFPGTAPKLLIYSNDQRPSVVPDRFSGSKSGTSASLAISGLQSEDEAEYYCAAWDDSLKGWVFGGGTQLTVL
notes: Kabat numbering; source: Expi293F, co-transfected, purified (CaptureSelect CH1-XL)
Turning to B2, the binding result in assay [2] was “no binding (tested: 300 nM)”.

B3: CR9114 gHC Fab VL W91R (Fab, V domains shown)
VH: QVQLVQSGAEVKKPGSSVKVSCKASGGTFSSYAISWVRQAPGQGLEWMGGIIPIFGTANYAQKFQGRVTITADKSTSTAYMELSSLRSEDTAVYYCARHGNYYYYYGMDVWGQGTTVTVSS
VL: SYVLTQPPAVSGTPGQRVTISCSGSDSNIGRRSVNWYQQFPGTAPKLLIYSNDQRPSVVPDRFSGSKSGTSASLAISGLQSEDEAEYYCAARDDSLKGAVFGGGTQLTVL
notes: as for B2
For the molecule B3, the binding result in assay [2] is recorded as “no binding (tested: 300 nM)”.

B4: CR9114 gHC Fab VL A96Y (Fab, V domains shown)
VH: QVQLVQSGAEVKKPGSSVKVSCKASGGTFSSYAISWVRQAPGQGLEWMGGIIPIFGTANYAQKFQGRVTITADKSTSTAYMELSSLRSEDTAVYYCARHGNYYYYYGMDVWGQGTTVTVSS
VL: SYVLTQPPAVSGTPGQRVTISCSGSDSNIGRRSVNWYQQFPGTAPKLLIYSNDQRPSVVPDRFSGSKSGTSASLAISGLQSEDEAEYYCAAWDDSLKGYVFGGGTQLTVL
notes: as for B2
Regarding B4, the binding result in assay [2] is “no binding (tested: 300 nM)”.

B5: CR9114 with germline heavy chain, Fab (Fab, V domains shown)
VH: QVQLVQSGAEVKKPGSSVKVSCKASGGTFSSYAISWVRQAPGQGLEWMGGIIPIFGTANYAQKFQGRVTITADKSTSTAYMELSSLRSEDTAVYYCARHGNYYYYYGMDVWGQGTTVTVSS
VL: SYVLTQPPAVSGTPGQRVTISCSGSDSNIGRRSVNWYQQFPGTAPKLLIYSNDQRPSVVPDRFSGSKSGTSASLAISGLQSEDEAEYYCAAWDDSLKGAVFGGGTQLTVL
notes: also called CR9114 gHC; WT; source: Expi293F, co-transfected, purified (CaptureSelect CH1-XL)
Regarding B5, the equilibrium dissociation constant (Kd) (in general, the concentration at which binding is half-saturated) in assay [2] is 2600 nM.

B6: CR9114 gHC Fab VL W91T (Fab, V domains shown)
VH: QVQLVQSGAEVKKPGSSVKVSCKASGGTFSSYAISWVRQAPGQGLEWMGGIIPIFGTANYAQKFQGRVTITADKSTSTAYMELSSLRSEDTAVYYCARHGNYYYYYGMDVWGQGTTVTVSS
VL: SYVLTQPPAVSGTPGQRVTISCSGSDSNIGRRSVNWYQQFPGTAPKLLIYSNDQRPSVVPDRFSGSKSGTSASLAISGLQSEDEAEYYCAATDDSLKGAVFGGGTQLTVL
notes: as for B2
B6: the binding result in assay [2] is recorded as “no binding (tested: 300 nM)”.

B7: CR9114 gHC Fab VL W91A (Fab, V domains shown)
VH: QVQLVQSGAEVKKPGSSVKVSCKASGGTFSSYAISWVRQAPGQGLEWMGGIIPIFGTANYAQKFQGRVTITADKSTSTAYMELSSLRSEDTAVYYCARHGNYYYYYGMDVWGQGTTVTVSS
VL: SYVLTQPPAVSGTPGQRVTISCSGSDSNIGRRSVNWYQQFPGTAPKLLIYSNDQRPSVVPDRFSGSKSGTSASLAISGLQSEDEAEYYCAAADDSLKGAVFGGGTQLTVL
notes: as for B2
As for B7, the binding result in assay [2] is on record as “no binding (tested: 300 nM)”.

B8: CR9114 gHC Fab VL A96F (Fab, V domains shown)
VH: QVQLVQSGAEVKKPGSSVKVSCKASGGTFSSYAISWVRQAPGQGLEWMGGIIPIFGTANYAQKFQGRVTITADKSTSTAYMELSSLRSEDTAVYYCARHGNYYYYYGMDVWGQGTTVTVSS
VL: SYVLTQPPAVSGTPGQRVTISCSGSDSNIGRRSVNWYQQFPGTAPKLLIYSNDQRPSVVPDRFSGSKSGTSASLAISGLQSEDEAEYYCAAWDDSLKGFVFGGGTQLTVL
notes: as for B2
As to B8, the binding result in assay [2] was “no binding (tested: 300 nM)”.
